Source: US20100092974A1, “METHODS FOR SCREENING FOR MODULATORS OF CCRL2” (The Board of Trustees of the Leland Stanford Junior …, priority 2008, published 2010)

Assays:
mCCRL2 [1] = biological target: T1, mCCRL2 (Mus musculus, UniProt O35457); assay: intracellular calcium mobilization, CCRL2/HEK293 transfectants; format: cell-based; details: HEK293 background, alone or in combination
T1 construct: The coding regions of mCCRL2, huCCRL2, mCRTH2, and huCCR10 were amplified from genomic DNA; expressed in transfected cells
T1 sequence (O35457 1-360): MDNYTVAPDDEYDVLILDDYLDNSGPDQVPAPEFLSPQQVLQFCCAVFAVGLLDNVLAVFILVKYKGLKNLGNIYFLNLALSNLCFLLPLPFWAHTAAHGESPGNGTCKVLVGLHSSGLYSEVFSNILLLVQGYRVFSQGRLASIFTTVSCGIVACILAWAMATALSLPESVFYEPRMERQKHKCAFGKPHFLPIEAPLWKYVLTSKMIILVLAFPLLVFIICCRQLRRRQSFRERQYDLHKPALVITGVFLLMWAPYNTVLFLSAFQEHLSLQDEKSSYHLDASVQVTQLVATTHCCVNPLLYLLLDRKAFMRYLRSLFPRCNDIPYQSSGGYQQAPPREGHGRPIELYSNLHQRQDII
Procedure: Chemoattractant-stimulated Ca^2+-mobilization was performed following Alliance for Cell Signaling protocol ID PP00000210. Cells (3×10^6/mL) were loaded with 4 μM Fluo4-AM and 0.16% Pluronic acid F-127 (Molecular Probes) in modified Iscove's medium (Iscove's medium with 1% heat inactivated bovine calf serum and 2 mM L-glutamine, Invitrogen) for 30 minutes at 37° C. The samples were mixed every 10 minutes during loading, washed once, resuspended at up to 2×10^6/mL in the same buffer, and allowed to rest in the dark for 30 minutes at room temperature. Chemoattractant-stimulated change in Ca^2+-sensitive fluorescence of Fluo-4 was measured over real-time with a FACsScan flow cytometer and CellQuest software (BD Biosciences) at room temperature under constant stirring (500 rpm). Fluorescent data were acquired continuously up to 1024 seconds at 1-second intervals. The samples were analyzed for 45 seconds to establish basal state, removed from the nozzle to add the stimuli, and then returned to the nozzle. Mean channel fluorescence over time was analyzed with FlowJo (TreeStar, Ashland, Oreg., USA) software. […] 500 μl of these chemerin-loaded cells were added to mCMKLR1/L1.2 cells loaded with Fluo4-AM, and calcium mobilization was evaluated.

mCCRL2 [2] = biological target: T1, mCCRL2; assay: chemerin binding/anti-mCCRL2 mAb displacement on peritoneal mast cells (flow cytometry); details: 1000 nM
mCCRL2 [3] = biological target: T1, mCCRL2; assay: in vitro transwell chemotaxis, mCCRL2/L1.2 transfectants; format: cell-based
Procedure: For migration experiments using cell lines, 2.5×10^5 cells/100 μl chemotaxis media (RPMI+10% fetal calf serum) were added to the top wells of 5-um pore transwell inserts (Costar, Corning, N.Y., USA), and test samples in 600 μl media were added to the bottom wells. After incubating the transwell plates for 1.5 hours at 37° C., the bottom wells were harvested and flow cytometry was used to assess migration. For primary cell chemotaxis, 1×10^6 cells/100 μl were added to the top well, and, following a 2 hour incubation at 37° C., polystyrene beads (15.0 μm diameter, Polysciences, Warrington, Pa., USA) were added to each well to facilitate normalization of the cell count. The cells were then stained for c-kit, F4/80, and/or CD11b expression and analyzed by flow cytometry. A ratio was generated and percent input migration was calculated.

[4] = biological target: T2, mouse CMKLR1 (chemokine-like receptor 1), untagged (mouse, UniProt P97468 1-371); assay: radioligand competition on L1.2 transfectants
T2 construct: whole, on cells; also called mCMKLR1; mCMKLR1/L1.2
T2 sequence (looked up): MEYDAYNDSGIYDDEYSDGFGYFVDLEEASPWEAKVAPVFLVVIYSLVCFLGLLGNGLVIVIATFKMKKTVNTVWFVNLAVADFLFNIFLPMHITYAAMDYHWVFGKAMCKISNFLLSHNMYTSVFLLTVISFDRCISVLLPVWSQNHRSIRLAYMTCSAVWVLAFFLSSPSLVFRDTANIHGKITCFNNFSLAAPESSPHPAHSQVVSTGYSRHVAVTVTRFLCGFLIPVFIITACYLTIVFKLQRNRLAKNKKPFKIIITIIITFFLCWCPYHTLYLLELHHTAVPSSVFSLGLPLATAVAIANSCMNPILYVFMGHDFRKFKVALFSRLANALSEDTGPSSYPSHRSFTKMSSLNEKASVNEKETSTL

[5] = biological target: T2, mouse CMKLR1 (chemokine-like receptor …); assay: radioligand competition on L1.2 transfectants, 125I-chemerin 21-148 displaced by the peptide … [panel B, legend box]
[6] = biological target: T2, mouse CMKLR1 (chemokine-like receptor …); assay: radioligand competition on L1.2 transfectants; displaces 125I-chemerin 21-148; 9-mer peptide … on CMKLR1
[7] = biological target: T3, mouse CCRL2 (chemokine (CC motif) receptor-like 2), untagged (mouse, UniProt O35457 1-360); assay: flow cytometry on WT peritoneal mast cells; competitor displaced: 10 nM His8-tagged serum form chemerin, anti-His6 PE [panel E]
T3 construct: whole, on cells; also called mCCRL2; mCCRL2/L1.2
T3 sequence (looked up): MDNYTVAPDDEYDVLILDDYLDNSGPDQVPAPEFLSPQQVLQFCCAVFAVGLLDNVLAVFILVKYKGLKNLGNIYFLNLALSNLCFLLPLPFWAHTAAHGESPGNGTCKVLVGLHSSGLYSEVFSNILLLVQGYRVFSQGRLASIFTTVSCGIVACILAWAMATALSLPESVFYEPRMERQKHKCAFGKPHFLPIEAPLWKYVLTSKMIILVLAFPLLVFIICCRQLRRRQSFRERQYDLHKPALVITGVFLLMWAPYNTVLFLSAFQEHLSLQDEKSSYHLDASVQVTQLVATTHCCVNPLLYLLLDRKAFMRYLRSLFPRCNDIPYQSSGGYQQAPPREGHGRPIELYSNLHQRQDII

[8] = biological target: T4, human CCRL2 with an engineered N-terminal hemagglutinin (HA) tag (human, UniProt O00421 1-344); assay: flow cytometry; untagged chemerin competes with 10 nM His8-tagged serum form human chemerin, detected with anti-His6 PE
T4 construct: whole, on cells; also called huCCRL2-HA; not shown: engineered N-terminal HA tag
T4 sequence (looked up): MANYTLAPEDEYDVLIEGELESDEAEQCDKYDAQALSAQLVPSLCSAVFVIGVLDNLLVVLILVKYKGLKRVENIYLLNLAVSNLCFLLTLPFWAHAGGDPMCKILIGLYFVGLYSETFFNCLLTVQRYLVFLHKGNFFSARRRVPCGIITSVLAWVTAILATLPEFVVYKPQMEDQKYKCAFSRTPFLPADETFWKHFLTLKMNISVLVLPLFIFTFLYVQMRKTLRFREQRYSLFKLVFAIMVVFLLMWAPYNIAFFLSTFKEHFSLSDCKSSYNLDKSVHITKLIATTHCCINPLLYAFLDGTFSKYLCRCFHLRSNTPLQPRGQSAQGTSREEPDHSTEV

[9] = biological target: T5, mouse CCRL2 with an engineered N-terminal hemagglutinin (HA) tag (mouse, UniProt O35457 1-360); assay: as above
T5 construct: whole, on cells; also called mCCRL2-HA; mCCRL2-HA/L1.2; not shown: engineered N-terminal HA tag
T5 sequence (looked up): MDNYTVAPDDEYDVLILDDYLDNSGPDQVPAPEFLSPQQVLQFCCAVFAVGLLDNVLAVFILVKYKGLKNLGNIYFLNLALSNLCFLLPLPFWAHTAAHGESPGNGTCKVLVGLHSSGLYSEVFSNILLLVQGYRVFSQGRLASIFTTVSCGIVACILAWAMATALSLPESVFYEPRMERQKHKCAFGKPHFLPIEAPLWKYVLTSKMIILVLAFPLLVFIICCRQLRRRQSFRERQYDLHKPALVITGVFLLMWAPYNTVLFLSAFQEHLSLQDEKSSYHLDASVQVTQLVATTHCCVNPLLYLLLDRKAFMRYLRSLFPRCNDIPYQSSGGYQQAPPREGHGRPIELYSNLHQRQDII

[10] = biological target: T3, mouse CCRL2 (chemokine (CC motif) …); assay: flow cytometry; chemerin inhibits staining of mouse peritoneal mast cells by the competitor anti-mCCRL2 BZ5B8; chemerin blocks anti-mCCRL2 mAb staining of mouse peritoneal mast cells

CCL2: chemokine purchased from R&D Systems
agonism, intracellular calcium mobilization (mCCRL2 [1]): neither CCL2 nor chemerin functioned as agonists | effect on CCRL2 staining (mCCRL2 [2]): no effect | synergy of CCL2 and chemerin in transwell migration (mCCRL2 [3]; CCL2 with chemerin): did not synergize | transwell migration (mCCRL2 [3]; range of doses, CXCL12 and CCL19 act via endogenous CXCR4 and CCR7): did not induce migration

B1: bioactive 9-mer carboxyl-terminal chemerin peptide (residues 149-157) (peptide)
peptide: YFPGQFAFS
notes: Synthetic peptide; also called bioactive chemerin peptide
fold less potent (against chemerin protein) [4]: 10 fold | EC50 [5]: 0.029 µM | EC50 [6]: 0.0262 µM

B2: pro-form (1000 nM untagged chemerin isoform) (ligand)
chain: ADPELTEAQRRGLQVALEEFHKHPPVQWAFQETSVESAVDTPFPAGIFVRLEFKLQQTSCRKRDWKKPECKVRPNGRKRKCLACIKLGSEDKVLGRLVHCPIETQVLREAEEHQETQCLRVQRAGEDPHSFYFPGQFAFSKALPRSPH
notes: also called untagged pro-form human chemerin, His8 tag removed by carboxypeptidase A
binding result [7]: binds

B3: untagged "serum form" human chemerin (His8 tag removed by carboxypeptidase A) (ligand)
chain: ADPELTEAQRRGLQVALEEFHKHPPVQWAFQETSVESAVDTPFPAGIFVRLEFKLQQTSCRKRDWKKPECKVRPNGRKRKCLACIKLGSEDKVLGRLVHCPIETQVLREAEEHQETQCLRVQRAGEDPHSFYFPGQFAPH
notes: The assays print 'untagged serum form chemerin' or 'serum form chemerin' without the species; Printed with an ellipsis; also called untagged serum form chemerin; untagged chemerin
EC50 [8]: 0.007 µM | EC50 [9]: 0.045 µM

B4: human chemerin (as used to block anti-mCCRL2 staining, FIG. 6 Panel A) (ligand, UniProt Q99969 21-157, looked up)
chain: ELTEAQRRGLQVALEEFHKHPPVQWAFQETSVESAVDTPFPAGIFVRLEFKLQQTSCRKRDWKKPECKVRPNGRKRKCLACIKLGSEDKVLGRLVHCPIETQVLREAEEHQETQCLRVQRAGEDPHSFYFPGQFAFS
EC50 [10]: 0.021 µM
